Experimental data taken from PMC8443706, “Functionally diverse heteromeric traps for ligands of the transforming growth factor-β superfamily” (Scientific Reports, 2021).

B1: BMP6 (ligand, human, UniProt P22004 375-513, looked up)
chain: SASSRRRQQSRNRSTQSQDVARVSSASDYNSSELKTACRKHELYVSFQDLGWQDWIIAPKGYAANYCDGECSFPLNAHMNATNHAIVQTLVHLMNPEYVPKPCCAPTKLNAISVLYFDDNSNVILKKYRNMVVRACGCH
notes: source: bought: R&D Systems

How the values were obtained:
Conditions in all cases: both partners purified
[1] = molecular target: T1, IIB-Fc:ALK3-Fc heterodimer (human ActRIIB ECD-Fc paired with human ALK3 ECD-Fc) (human, UniProt Q13705-1 19-134; P36894 24-152); assay: SPR; Biacore 8K, 37 °C; Fc-fusion receptor dimers captured by anti-human Fc antibody on a CM5 chip (100-150 RU); ligands injected in two-fold dilution series (300 s association, 600 s dissociation); HBS-EP+ supplemented with 350 mM NaCl and 0.5 mg/mL BSA; 1:1 Langmuir model with a term for mass transport
T1 construct: activin receptor type IIB (ActRIIB) extracellular domain, human, aa 19-134 of NP_001097.2; copies: 1 + 1

[2] = molecular target: T2, IIB-Fc:ALK4-Fc heterodimer (human ActRIIB ECD-Fc paired with human ALK4 ECD-Fc) (human, UniProt Q13705-1 19-134; P36896-1 24-126); assay: as above
T2 construct: activin receptor type IIB (ActRIIB) extracellular domain, human, aa 19-134 of NP_001097.2; copies: 1 + 1
T2 sequence (Q13705 19-134, chain 1 of 2): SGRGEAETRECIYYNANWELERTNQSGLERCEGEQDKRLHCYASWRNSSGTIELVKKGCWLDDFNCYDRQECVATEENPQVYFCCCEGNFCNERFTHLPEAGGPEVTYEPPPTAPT
T2 sequence (P36896 24-126, chain 2 of 2): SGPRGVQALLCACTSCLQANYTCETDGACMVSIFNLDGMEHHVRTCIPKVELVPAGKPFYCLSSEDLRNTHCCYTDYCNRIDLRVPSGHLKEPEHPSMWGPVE

[3] = molecular target: T3, IIB-Fc:ALK7-Fc heterodimer (human ActRIIB ECD-Fc paired with human ALK7 ECD-Fc) (human, UniProt Q13705-1 19-134; Q8NER5-1 25-113); assay: as above
T3 construct: activin receptor type IIB (ActRIIB) extracellular domain, human, aa 19-134 of NP_001097.2; activin receptor-like kinase 7 (ALK7) extracellular domain, human, aa 25-113 of NP_660302.2; copies: 1 + 1
T3 sequence (Q13705 19-134, chain 1 of 2): as the sequence (Q13705 19-134, chain 1 of 2) above
T3 sequence (Q8NER5 25-113, chain 2 of 2): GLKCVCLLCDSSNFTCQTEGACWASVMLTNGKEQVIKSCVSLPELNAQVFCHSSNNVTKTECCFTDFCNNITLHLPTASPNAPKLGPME

[4] = molecular target: T4, IIB-Fc:IIB-Fc homodimer (human ActRIIB ECD fused to human IgG1 Fc) (human, UniProt Q13705-1 19-134); assay: as above
T4 construct: activin receptor type IIB (ActRIIB) extracellular domain, human, aa 19-134 of NP_001097.2; Chains linked by disulfide bonds between the Fc domains; a form with murine IgG2a Fc was used only in mice; also called ActRIIB-Fc homodimer; ActRIIB-Fc; not shown: Fc (human IgG1), C-terminal, kept
T4 sequence (Q13705 19-134): as the sequence (Q13705 19-134, chain 1 of 2) above

[5] = molecular target: T2, IIB-Fc:ALK4-Fc heterodimer (human …); assay: SPR; same experiment as a1 (Biacore 8K, 37 °C, receptor dimers captured by anti-human Fc, HBS-EP+ with 350 mM NaCl added and 0.5 mg/mL BSA) but fitted with a bivalent analyte model (bold cells of Table 1); the first binding step is the one considered
[6] = molecular target: T3, IIB-Fc:ALK7-Fc heterodimer (human …); assay: as above
[7] = molecular target: B1; assay: SPR; Biacore 8K, 37 °C; Fc-fusion receptor dimers captured by anti-human Fc antibody on a CM5 chip (100-150 RU); ligands injected in two-fold dilution series (300 s association, 600 s dissociation); HBS-EP+ supplemented with 350 mM NaCl and 0.5 mg/mL BSA; 1:1 Langmuir model with a term for mass transport
[8] = molecular target: T1, IIB-Fc:ALK3-Fc heterodimer (human …); assay: SPR; same experiment as a1 (Biacore 8K, 37 °C, receptor dimers captured by anti-human Fc, HBS-EP+ with 350 mM NaCl added and 0.5 mg/mL BSA) but fitted with a bivalent analyte model (bold cells of Table 1); the first binding step is the one considered

Kd [1] | koff [1] | kon [1] | Kd [2] | koff [2] | kon [2] | Kd [3] | koff [3] | kon [3] | Kd [4] | koff [4] | kon [4] | Kd [5] | koff [5] | kon [5] | Kd [6] | koff [6] | kon [6] | Kd [8] | koff [8] | Binder | also measured
0.0696 nM | 0.000335 s⁻¹ | 4.8e+06 M⁻¹ s⁻¹ | 0.0153 nM | 8.07e-05 s⁻¹ | 5.3e+06 M⁻¹ s⁻¹ | 0.0153 nM | 0.000114 s⁻¹ | 7.4e+06 M⁻¹ s⁻¹ | 0.0038 nM | 2.19e-05 s⁻¹ | 5.7e+06 M⁻¹ s⁻¹ |  |  |  |  |  |  |  |  | activin B (ligand, human, UniProt P09529 293-407, looked up, source: generated in house) GLECDGRTNLCCRQQFFIDFRLIGWNDWIIAPTGYYGNYCEGSCPAYLAGVPGSASSFHTAVVNQYRMRGLNPGTVNSCCIPTKLSTMSMLYFDDEYNIVKRDVPNMIVEECGCA | 
0.0485 nM | 0.000641 s⁻¹ | 1.32e+07 M⁻¹ s⁻¹ | 0.0108 nM | 0.000164 s⁻¹ | 1.52e+07 M⁻¹ s⁻¹ | 0.0474 nM | 0.000642 s⁻¹ | 1.35e+07 M⁻¹ s⁻¹ | 0.0039 nM | 7.56e-05 s⁻¹ | 1.94e+07 M⁻¹ s⁻¹ |  |  |  |  |  |  |  |  | GDF11 (ligand, human, UniProt O95390 299-407, looked up, source: generated in house) NLGLDCDEHSSESRCCRYPLTVDFEAFGWDWIIAPKRYKANYCSGQCEYMFMQKYPHTHLVQQANPRGSAGPCCTPTKMSPINMLYFNDKQQIIYGKIPGMVVDRCGCS | 
0.165 nM | 0.00197 s⁻¹ | 1.19e+07 M⁻¹ s⁻¹ |  |  |  |  |  |  |  |  |  | > 10 nM | > 0.01 s⁻¹ | 800000 M⁻¹ s⁻¹ | > 10 nM | > 0.01 s⁻¹ | 700000 M⁻¹ s⁻¹ |  |  | BMP7 (ligand, human, UniProt P18075 293-431, looked up, source: bought: R&D Systems) STGSKQRSQNRSKTPKNQEALRMANVAENSSSDQRQACKKHELYVSFRDLGWQDWIIAPEGYAAYYCEGECAFPLNSYMNATNHAIVQTLVHFINPETVPKPCCAPTQLNAISVLYFDDSSNVILKKYRNMVVRACGCH | 
 |  |  |  |  |  |  |  |  |  |  |  |  |  |  |  |  |  |  |  | ALK3-Fc:ALK3-Fc homodimer (human ALK3 ECD fused to human IgG1 Fc) (Fc fusion, UniProt P36894 24-152, looked up, not shown: Fc (human IgG1), C-terminal, kept) QNLDSMLHGTGMKSDSDQKKSENGVTLAPEDTLPFLKCYCSGHCPDDAINNTCITNGHCFAIIEEDDQGETTLASGCMKYEGSDFQCKDSPKAQLRRTIECCRTNLCNQYLQPTLPPVVIGPFFDGSIR | Kd [7]: 9.03 nM; koff [7]: 0.00569 s⁻¹; kon [7]: 600000 M⁻¹ s⁻¹
0.0041 nM |  |  |  |  |  |  |  |  | 5.43 nM |  |  |  |  |  |  |  |  |  |  | BMP4 (ligand, human, UniProt P12644 293-408, looked up, source: bought: R&D Systems) SPKHHSQRARKKNKNCRRHSLYVDFSDVGWNDWIVAPPGYQAFYCHGDCPFPLADHLNSTNHAIVQTLVNSVNSSIPKACCVPTELSAISMLYLDEYDKVVLKNYQEMVVEGCGCR | 
 |  |  |  |  |  |  |  |  | 0.0933 nM | 0.0011 s⁻¹ | 1.24e+07 M⁻¹ s⁻¹ | 1.36 nM | > 0.01 s⁻¹ | 8.9e+06 M⁻¹ s⁻¹ | 2.3 nM | > 0.01 s⁻¹ | 7.1e+06 M⁻¹ s⁻¹ | 1.76 nM | > 0.01 s⁻¹ | BMP9 (ligand, human, UniProt Q9UK05 320-429, looked up, source: generated in house) SAGAGSHCQKTSLRVNFEDIGWDSWIIAPKEYEAYECKGGCFFPLADDVTPTKHAIVQTLVHLKFPTKVGKACCVPTKLSPISVLYKDDMGVPTLKYHYEGMSVAECGCR | kon [8]: 9.7e+06 M⁻¹ s⁻¹
 |  |  | 0.0184 nM | 0.000139 s⁻¹ | 7.4e+06 M⁻¹ s⁻¹ |  |  |  | 0.0109 nM | 8.45e-05 s⁻¹ | 7.8e+06 M⁻¹ s⁻¹ |  |  |  | 0.41 nM | 0.00815 s⁻¹ | 2e+07 M⁻¹ s⁻¹ | 0.164 nM | 0.00733 s⁻¹ | activin A (ligand, human, UniProt P08476 311-426, looked up, source: generated in house) GLECDGKVNICCKKQFFVSFKDIGWNDWIIAPSGYHANYCEGECPSHIAGTSGSSLSFHSTVINHYRMRGHSPFANLKSCCVPTKLRPMSMLYYDDGQNIIKKDIQNMIVEECGCS | kon [8]: 4.47e+07 M⁻¹ s⁻¹
0.0335 nM | 0.000719 s⁻¹ | 2.15e+07 M⁻¹ s⁻¹ | 0.067 nM | 0.0028 s⁻¹ | 4.18e+07 M⁻¹ s⁻¹ | 0.0706 nM | 0.00314 s⁻¹ | 4.45e+07 M⁻¹ s⁻¹ | 0.0065 nM | 0.000121 s⁻¹ | 1.86e+07 M⁻¹ s⁻¹ |  |  |  |  |  |  |  |  | BMP10 (ligand, human, UniProt O95393 317-424, looked up, source: bought: R&D Systems) NAKGNYCKRTPLYIDFKEIGWDSWIIAPPGYEAYECRGVCNYPLAEHLTPTKHAIIQALVHLKNSQKASKACCVPTKLEPISILYLDKGVVTYKFKYEGMAVSECGCR | 
 |  |  |  |  |  |  |  |  | 0.64 nM | 0.00188 s⁻¹ | 2.9e+06 M⁻¹ s⁻¹ | > 10 nM | > 0.01 s⁻¹ | 1.1e+06 M⁻¹ s⁻¹ | > 10 nM | > 0.01 s⁻¹ | 1.1e+06 M⁻¹ s⁻¹ | > 10 nM | > 0.01 s⁻¹ | GDF3 (ligand, human, UniProt Q9NR23 251-364, looked up, source: bought: R&D Systems) AAIPVPKLSCKNLCHRHQLFINFRDLGWHKWIIAPKGFMANYCHGECPFSLTISLNSSNYAFMQALMHAVDPEIPQAVCIPTKLSPISMLYQDNNDNVILRHYEDMVVDECGCG | kon [8]: 900000 M⁻¹ s⁻¹
0.046 nM | 0.000214 s⁻¹ | 4.6e+06 M⁻¹ s⁻¹ | 0.758 nM | 0.00573 s⁻¹ | 7.6e+06 M⁻¹ s⁻¹ | 0.715 nM | 0.00424 s⁻¹ | 5.9e+06 M⁻¹ s⁻¹ |  |  |  |  |  |  |  |  |  |  |  | B1 | 
